“And” between values parts separate entries of the source, which are not always exact repeats. Identical values can stand only once.
B1: GST-MmCheFCTD (domain or fragment)
chain: IKSLLPKSEDDLDSEMAVESWSGDKLKNEVEQLAPEEQEILTAIYTGITSLELPGMMGMDIDEVEKVLEKLIDQGFLDLVRIRKETDLTEKGRAVTNFIITNF
modifications: GST carrier left out; limits taken as the C-terminal 103 residues (246-348, F348 terminal) used in the CheY:CheFCTD fusion, exact limits are in Fig. S3a; fusion is mainly a dimer by mass photometry /
B2: GST-MmCheFCTD (domain or fragment)
chain: B1 chain
B3: Methanococcus maripaludis CheY, activated with BeF3- (phosphorylated state mimicked) (natural protein, UniProt Q6LYQ5 1-123, looked up)
chain: MASIVKTMIVDDSAFMRNILKRILSTTNKYVVIGEAANGADAIKMAEELQPDLISMDIVMPETDGITATKAIKEKTPEIKIVMCTSVDQEQKMIDAVNAGADGYIVKPFQAPKILEQFNKLFP
modifications: BeF3- phosphomimic (2 mM BeF2 and 20 mM NaF in the buffer); phosphorylation site D57
notes: CheY of Methanococcus maripaludis; The same protein as m10, in buffer with 2 mM BeF2, 20 mM NaF and 20 mM MgCl2; also called CheY-P; source: E. coli BL21 (DE3), purified (Ni-NTA, SEC)

Key:
FliM FliMN peptide = FliM FliMN peptide (UniProt P06974); settings: cited from earlier work
[1] = target: FliM 1-249 (Thermotoga maritima) (UniProt Q9WZE6); settings: cited from earlier work
Chain of FliM 1-249 (Thermotoga maritima) (Q9WZE6 1-249): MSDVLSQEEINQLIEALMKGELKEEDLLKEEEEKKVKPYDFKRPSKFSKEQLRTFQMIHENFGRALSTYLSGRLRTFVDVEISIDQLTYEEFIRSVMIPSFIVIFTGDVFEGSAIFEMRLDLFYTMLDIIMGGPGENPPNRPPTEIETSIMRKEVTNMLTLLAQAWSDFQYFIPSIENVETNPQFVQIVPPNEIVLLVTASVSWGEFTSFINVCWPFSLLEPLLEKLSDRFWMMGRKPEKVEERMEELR

[2] = target: Methanococcus maripaludis CheF (Methanococcus maripaludis); test: mass photometry; OneMP mass photometer; protein stocks diluted in HEPES buffer; typical working concentrations of MmCheF 25–50 nM
[3] = target: Pyrococcus horikoshii CheF (Pyrococcus horikoshii); test: as above
[4] = target: Thermococcus kodakarensis CheF (Thermococcus kodakarensis); test: as above
GST-MmCheFCTD [5] = target: B2; test: as above; settings: both partners purified
[6] = target: B3; test: ITC; GST-MmCheFCTD (25 µM) in the sample cell, titrated with MmCheY; 25 °C; 20 mM HEPES-Na pH 7.5, 200 mM NaCl, 20 mM KCl, 20 mM MgCl2, 20 mM NaF, 2 mM BeF2; settings: both partners purified
GST-MmCheFCTD [7] = target: B2; test: as above; settings: both partners purified

Molecule: CheY (from UniProt P0AE67)
- Kd (FliM FliMN peptide): 27 µM

Molecule: CheY (from UniProt Q56312)
- Kd [1]: 0.039 µM

Molecule: Methanococcus maripaludis CheF (natural protein)
- stoichiometry N [2]: 2

Molecule: Pyrococcus horikoshii CheF (natural protein)
- percent of observations in the dimer species [3]: 89%
- stoichiometry N [3]: 2

Molecule: Thermococcus kodakarensis CheF (natural protein)
- stoichiometry N [4]: 2

Molecule: B1
- stoichiometry N (GST-MmCheFCTD [5]): 2 and 4

Molecule: B2
- Kd [6]: 1.24 ± 0.414 µM

Molecule: B3
- stoichiometry N (GST-MmCheFCTD [7]): 1
